# Source: publication PMC8561734, “Structural basis for SdgB- and SdgA-mediated glycosylation of staphylococcal adhesive proteins” (Acta Crystallographica. Section D, Structural Biology, 2021)
# Where no end group is shown, it is not given here. The star is where a group is joined. βGlcNAc = CC(=O)N[C@@H]1[C@@H](O)[C@H](O)[C@@H](CO)O[C@H]1*
# T1: SdgB (glycosyltransferase, Staphylococcus aureus USA300) (Staphylococcus aureus (strain USA300), UniProt A0A0H2XGN0 1-496)
# T1 chain: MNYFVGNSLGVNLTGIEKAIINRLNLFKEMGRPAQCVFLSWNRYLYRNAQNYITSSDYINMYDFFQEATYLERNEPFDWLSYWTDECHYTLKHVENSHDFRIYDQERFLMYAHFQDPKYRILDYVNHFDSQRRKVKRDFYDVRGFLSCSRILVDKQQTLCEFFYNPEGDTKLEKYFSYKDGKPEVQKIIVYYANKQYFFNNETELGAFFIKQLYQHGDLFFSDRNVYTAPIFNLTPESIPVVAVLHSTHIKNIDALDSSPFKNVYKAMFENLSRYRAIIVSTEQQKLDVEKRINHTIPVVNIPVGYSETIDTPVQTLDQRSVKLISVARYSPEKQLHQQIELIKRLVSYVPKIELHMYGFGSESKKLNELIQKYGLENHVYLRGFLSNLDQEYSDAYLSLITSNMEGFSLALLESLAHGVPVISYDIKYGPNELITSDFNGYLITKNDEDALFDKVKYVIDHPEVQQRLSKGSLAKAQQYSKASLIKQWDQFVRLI
# B1: diGlcNAcylated 9-mer SD-repeat peptide (DSDSDSDSD) (peptide)
# peptide: DSDS(βGlcNAc)DSDS(βGlcNAc)D
# notes: serine–aspartate repeat as in the SDR domains of staphylococcal SDR proteins (ClfA and others); no one parent protein is named; Asp1 not modelled in the structure; The peptide was added unmodified; also called GlcNAcylated SD-repeat peptide (9-mer); O-GlcNAcylated SDR peptide (9-mer); source: 9-mer peptide soaked into the SdgB crystal with UDP-GlcNAc and glycosylated in the crystal
# B2: SdgB (glycosyltransferase, Staphylococcus aureus USA300) (enzyme)
# chain: T1 chain
# notes: SdgB, O-GlcNAc glycosyltransferase of S. aureus strain USA300, gene SAUSA300_0550, cloned into pET-21a(+); theoretical monomer mass 59.5 kDa; A selenomethionine-substituted form was used only for phasing; also called SdgB_(quaternary); source: E. coli Rosetta 2(DE3)pLysS, purified (HiTrap Chelating, HiTrap Q, Superdex 200)
# B3: 5-mer SD-repeat peptide Asp-Ser-Asp-Ser-Asp (DSDSD) (peptide)
# peptide: DSDSD
# notes: serine–aspartate repeat as in the SDR domains of staphylococcal SDR proteins (ClfA and others); no one parent protein is named; only SDSD was modelled in the structure; also called 5-mer SDR peptide; source: synthetic peptide
# B4: SdgA (glycosyltransferase, Staphylococcus aureus USA300) (enzyme)
# chain: MNYILGTILESKITGVEKAQINRLKLFKQHGISSKCVYVKWNPYSYTYAKQHQIENDVFTMYDYFQKAINYKKTKQVNWIQYWEKSCRYTLKFVENSNDVRIYDEEQFVMYAHFLDKQYHQLNYVNYFDHKRRKVKRELYDGRGFLSCSRILGEGQRIVLENYYTPNGEIVIQKYFDDIKGKNTLTKVILNEDQHQQFFDTEDELVQYFLHQLCKNNDQIILDRPHELGNVIAGLNQSIPVIVVLHSTHLSGAGNGIKSFYKTVFNNLTRYKAIVVSTEKQCQDISQYIENKIPVINIPVGYVANLKYQFDINQKEKNHIISIARLVENKQIKHQIEVIKQLVTKHPNIQLNIYGHGNGLSEYRQLVEDYHLSEHVKFHGFKTHINEEIAKAELMLSTSKMEGFGLAILESLSVGTPVISYDVDYGPSELIQDGFNGYLVPQGDINQMVEKVDQLLNNTQKLQQFSINSIESAQQYNATTISTKWQNILN
# notes: SdgA, glycosyltransferase of S. aureus strain USA300, gene SAUSA300_0549, cloned into pET-21a(+); theoretical monomer mass 60.4 kDa; source: E. coli Rosetta 2(DE3)pLysS, purified (HiTrap Chelating, HiTrap Q, Superdex 200)
# What was measured:
# [1] = target: T2, SdgB (Staphylococcus aureus, UniProt A0A0H2XGN0); assay: MALDI-MS O-GlcNAcyltransferase assay; assay type: biochemical; details: 10 mM donor; acceptor DSD or DSDSD 3 mM, 5 uM enzyme, 20 mM HEPES pH 7.5, 150 mM NaCl, 1 mM MgCl2, 37 C, 2 h
# T2 construct: gene SAUSA300_0550; full-length, C-terminal His6 tag (pET-21a), E. coli Rosetta 2(DE3)pLysS; residues 1-496 compared
# [2] = target: SdgA (glycosyltransferase, Staphylococcus aureus USA300) (Staphylococcus aureus (strain USA300)); assay: AUC; sedimentation velocity; SdgA at 4.5 µM; 30 000 rev/min
# [3] = target: SdgA (glycosyltransferase, Staphylococcus aureus USA300) (Staphylococcus aureus (strain USA300)); assay: AUC; sedimentation equilibrium; SdgB 1 µM, SdgA 4.5 µM; 20 mM HEPES pH 7.5, 150 mM NaCl, 1 mM MgCl2; 9000 and 15 000 rev/min; global fit to a monomer–dimer self-association model (dimer to monomers)
# [4] = target: T2, SdgB; assay: X-ray crystallography; details: donor-binding site, closed form
# [5] = target: B2; assay: crystal structure; SdgB crystal (20 mM CaCl2, 85 mM trisodium citrate pH 5.6, 25.5% PEG 4000, 15% glycerol) soaked with 2.66 mM 9-mer SD-repeat peptide and 9.60 mM UDP-GlcNAc for 7.5 h; details: both partners purified
# [6] = target: the molecule itself; assay: AUC; sedimentation equilibrium; SdgB 1 µM, SdgA 4.5 µM; 20 mM HEPES pH 7.5, 150 mM NaCl, 1 mM MgCl2; 9000 and 15 000 rev/min; global fit to a monomer–dimer self-association model (dimer to monomers)
# [7] = target: the molecule itself; assay: SEC-MALS; SdgB 0.22 mg injected; Superdex 200 Increase 10/300 GL; 20 mM Tris–HCl pH 7.5, 200 mM NaCl; 0.5 ml/min
# [8] = target: B2; assay: crystal structure; SdgB crystal (0.2 M MgCl2, 0.1 M Tris–HCl pH 8.5, 25% PEG 3350) quick-soaked with 6.14 mM UDP and 2.45 mM 5-mer peptide DSDSD for 30 min; details: both partners purified
# [9] = target: B2; assay: SPR; SdgB immobilised on a PEG-based sensor chip (1062 RU); SdgA 0.39–25.0 µM as analyte; HBS-EP (10 mM HEPES pH 7.4, 150 mM NaCl, 0.03 mM EDTA, 0.005% Tween 20); 20°C; kinetic fit with Scrubber2; details: both partners purified
# [10] = target: T1, SdgB (glycosyltransferase, …); assay: SPR
molecule,measurement,setting,value
CC(=O)N[C@H]1[C@@H](OP(=O)(O)OP(=O)(O)OC[C@H]2O[C@@H](n3ccc(=O)[nH]c3=O)[C@H](O)[C@@H]2O)O[C@H](CO)[C@@H](O)[C@@H]1O [UDP-GlcNAc],MALDI-MS O-GlcNAcyltransferase assay,[1],converted into mono-GlcNAcylated forms by SdgB but not by SdgA
"SdgA (glycosyltransferase, Staphylococcus aureus USA300) (from UniProt A0A0H2XI10 1-490) (enzyme)",stoichiometry N,[2],2
same,Kd,[3],14100 nM
O=c1ccn([C@@H]2O[C@H](COP(=O)(O)OP(=O)(O)O)[C@@H](O)[C@H]2O)c(=O)[nH]1 [UDP],X-ray crystallography,"[4]; complex with cleaved GlcNAc and diGlcNAcylated 9-mer, 2.5 A, also seen with DSDSD in a second structure (7VFM)",distinct electron density for UDP and GlcNAc was observed in the cleft
CC(=O)N[C@H]1C(O)O[C@H](CO)[C@@H](O)[C@@H]1O (some centres unmarked) [GlcNAc],X-ray crystallography,"[4]; cleaved from soaked UDP-GlcNAc, with UDP and diGlcNAcylated 9-mer",distinct electron density for UDP and GlcNAc was observed in the cleft
B1,binding result,[5],binds
B2,Kd,[6],926 nM
same,stoichiometry N,[7],2
B3,binding result,[8],binds
B4,Kd,[9],393 nM
same,koff,[10],0.000496 s⁻¹
